Patent US20130064825A1

Columns and labels:
[1] = biological target: cynomolgus monkey PCSK9, V5-6xHIS tagged (cynomolgus monkey); experiment: KinExA solution equilibrium, PCSK9-coated beads
[2] = biological target: cynomolgus monkey PCSK9, V5-6xHIS tagged (cynomolgus monkey); experiment: SPR (Biacore 2000), antibody amine-coupled on CM5 chip, PCSK9 injected, pH 7.4

With 31H4, anti-PCSK9 huIgG4 (antibody) the Kd [1] was 0.002 nM and the Kd [2] was 0.19 nM.
